Source: the supplement of paper PMC10567573

B1: FCHO1 (parent)
chain: FTSSPSPFSSSSPENVEDSGLDSP
B2: FAM107A (parent)
chain: HRRGLGVDSKPELQRVLEHRRRNQ

Variants of: B1
Assay: protein stability index of a GFP-peptide fusion (GPS, HEK-293T) (PSI 1-6); higher = more stable
Conditions: c terminus: a fixed tail appended
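Further: lentivirally expressed fusions sorted by FACS into six bins by GFP to DsRed ratio, PSI derived from sequencing read proportions per bin multiplied by bin number.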

Protein stability index: each site, then its substitutions
P5: G 2.06; V 2.17; Q 2.16; N 2.09; M 2.02; K 2.31; A 1.88; W 1.87; S 2.67; F 2.32; D 2.43; H 2.23; T 1.69; I 1.81; C 1.96; R 2.08; Y 1.9; L 1.91; E 2.04
T2: A 2.26; R 5.01; L 3.48; Q 1.58; P 2.65; V 2.93; I 2.14; H 2.02; D 4.91; W 3.64; F 4.58; Y 4.84; G 2.71; C 2.02; M 3.48; E 5.36; K 5.53; S 2.86; N 3.96
S3: L 3.8; D 2.7; A 2.26; I 3.05; G 1.38; M 2.38; K 3.48; V 2.05; T 1.87; Y 2.85; C 2.01; R 3.59; W 2.61; Q 2.42; F 2.6; H 2.32; E 2.79; P 2.52; N 2.71
S4: W 3.58; I 2.19; R 1.42; M 1.73; H 1.91; Y 1.95; V 1.8; N 2.06; A 1.71; L 2.31; F 2.9; Q 2.14; G 2; E 3.14; C 2.35; T 1.93; K 2.13; D 2.03; P 3.53
P7: H 2.12; V 2.24; N 1.96; L 1.91; F 1.93; K 2.28; S 2.25; G 2.89; R 2.09; C 1.56; Y 2.49; D 3.19; A 2.25; T 2.38; M 2.1; E 2.79; I 1.74; Q 1.86
S6: R 2.21; Y 2.19; M 1.83; Q 2.08; C 2.18; I 2.22; E 2.85; F 1.79; V 1.99; D 3.29; T 2.19; L 1.86; N 1.98; W 2.44; A 2.37; G 2.02; K 2.67; H 2.23
F8: H 5.05; K 5.34; Q 4.95; C 3.77; D 5.5; N 4.9; A 5.11; M 4.53; E 5.2; P 4.95; L 3.74; I 4.48; G 4.72
F1: H 4.74; A 5.3; Y 1.88; V 5.51; K 5.56; Q 5.16; N 5.29; M 5.34; W 5.16; G 5.46; I 5.67; D 5.61; L 5.78; E 5.62; P 5.41; S 5.49; R 5.69; T 5.38; C 5.43

Variants of: B2
Assay: as above
Conditions: c terminus: a fixed tail appended

Protein stability index, by site and new letter:
E12: K 4.18; D 2.18; C 4.11; L 4.02; W 3.5; A 4.3; T 2.98; R 2.99
P11: W 3.25; V 3.95; Y 2.59
R20: K 4.79; M 4.04; N 4.04; D 3.98; Q 3.96; A 3.36; E 4.33; W 3.47; T 4.42; I 3.78; G 3.95; Y 3.41; L 3.31; S 4.27; F 2.69; P 4.59; C 4.53
Q14: K 3.39; I 2.75; N 4.5; M 2.81; D 4.07; G 4.8; Y 3.15; S 3.71; C 4.03; V 3.86; T 4.28; H 3.48; P 4; F 3.62
R22: P 4.36; W 2.46; G 3.64; N 3.48; T 3.76; H 3.55; Y 3.82; K 4.46; D 4.62; A 4.63; Q 3.57; F 3.43; L 3.4; S 4.79; C 3.6
V16: L 4.03; N 4.76; K 4.47; T 3.71; R 4.67; G 5.55; P 4.89; I 3.63; H 3.96; D 4.25; Q 5.45; A 4.83; C 4.44; F 4.23; S 4.01; Y 4.46
L13: R 4.14; S 4.93; D 5.59; H 4.93; G 4.94; C 3.67; Y 4.95; N 5.21; K 4.97; M 4; Q 5.33; A 4.31; F 4.75; T 5.23; V 3.94; I 4.71; E 5.77
R21: C 3.39; Q 4.38; K 4.15; E 5.04; I 3.86; L 3.77; W 3.64; T 3.48; S 3.37; Y 3.98; H 4.38; M 4.09; N 4.74; D 4.11
E18: S 2.71; T 3.58; M 2.48; L 3.98; Q 2.67; G 3.58; N 4.02; A 3.57; F 3.93; R 4.12; Y 4.17; D 3.29; P 5.02
R15: Y 4.79; Q 3.56; E 4.17; T 4.34; G 5.35; N 4.29; D 4.26; W 3.21; F 4.19; H 4.25; M 4.06; S 4.43; P 4.89; K 3.31; A 4.26
L17: V 4.17; G 5.21; D 5.01; W 3.71; C 5.08; A 4.92; P 4.7; N 5.25; H 4.34; K 4.53; I 4.76; Y 4.56; S 4.79; Q 4.99; M 4.14; E 4.21
H19: R 4.54; N 4.93; S 4.82; M 4.13; G 4.68; L 4.45; P 4.29; W 1.53; Q 3.67; C 2.01; Y 3.72; K 4.29; I 4.04; D 5.29
N23: V 3.33; D 3.85; L 2.35; H 2.74; C 2.37; E 3.52; I 2.32; Q 3.14; F 4.65; P 3.03; A 2.99; R 3.26
Q24: I 2.4; H 3.64; C 3.59; P 2.74; K 4.39; W 2.73; T 3.78; M 2.88; A 3.88; D 3.81; Y 2.79; E 4.59; V 3.24; L 2.49; N 4.19; S 3.57
